# From patent publication US20040161798A1
# T1: His6Gal80, P04387
# T1 chain: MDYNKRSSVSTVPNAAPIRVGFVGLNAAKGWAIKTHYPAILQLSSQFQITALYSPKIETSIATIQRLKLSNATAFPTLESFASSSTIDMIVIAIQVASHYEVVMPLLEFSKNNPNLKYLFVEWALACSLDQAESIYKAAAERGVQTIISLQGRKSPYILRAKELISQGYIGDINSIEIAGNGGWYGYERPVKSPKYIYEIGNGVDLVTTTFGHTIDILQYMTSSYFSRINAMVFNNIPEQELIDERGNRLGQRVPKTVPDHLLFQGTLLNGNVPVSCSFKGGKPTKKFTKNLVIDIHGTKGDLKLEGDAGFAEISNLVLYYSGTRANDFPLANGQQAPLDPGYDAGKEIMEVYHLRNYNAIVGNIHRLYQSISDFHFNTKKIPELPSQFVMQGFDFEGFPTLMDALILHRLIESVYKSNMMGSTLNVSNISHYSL
# How the values were obtained:
# His6Gal80, P04387 [1] = molecular target: T1, His6Gal80, P04387; assay: dilution assay on TentaGel beads, Western blot
# His6Gal80, P04387 [2] = molecular target: T1, His6Gal80, P04387; assay: fluorescence polarization after adding excess unlabeled peptide
# His6Gal80, P04387 [3] = molecular target: T1, His6Gal80, P04387; assay: capture of dilute Gal80 (0.4 nM) by TentaGel-Gal80bp, Western blot
# His6Gal80, P04387 [4] = molecular target: T1, His6Gal80, P04387; assay: fluorescence polarization titration of fluorescein-labeled peptide in solution
# His6Gal80, P04387 [5] = molecular target: T1, His6Gal80, P04387; assay: capture of dilute Gal80 by TentaGel-Gal80bp, Western blot against a calibration blot
# His6Gal80, P04387 [6] = molecular target: T1, His6Gal80, P04387; assay: capture of Gal80 by 2 mg of TentaGel-Gal80bp at the higher protein concentrations, Western blot
# His6Gal80, P04387 [7] = molecular target: T1, His6Gal80, P04387; assay: fluorescence polarization in solution: fluorescein-labelled peptide titrated with Gal80 protein
binder,measurement,setting,value
YDQDMQNNTFDDLFWKEGHR (modifications not checked) [Gal80bp],bound protein left on the beads (percent of the original level),"His6Gal80, P04387 [1]",50%
same,half-life of the complex in solution,"His6Gal80, P04387 [2]",< 10 s
same,percent of the protein bound to the beads,"His6Gal80, P04387 [3]",100%
same,Kd,"His6Gal80, P04387 [4]",300 nM
same,Kd,"His6Gal80, P04387 [5]",< 0.4 nM
same,amount of protein retained on the beads,"His6Gal80, P04387 [6]",50 ng
same,Kd,"His6Gal80, P04387 [7]",200 nM
